Laboratory results from article PMC12747262 (bioRxiv, 2025).

T1: TTC7B (from the E. coli dimers) (UniProt Q86TV6 1-843)
T1 sequence: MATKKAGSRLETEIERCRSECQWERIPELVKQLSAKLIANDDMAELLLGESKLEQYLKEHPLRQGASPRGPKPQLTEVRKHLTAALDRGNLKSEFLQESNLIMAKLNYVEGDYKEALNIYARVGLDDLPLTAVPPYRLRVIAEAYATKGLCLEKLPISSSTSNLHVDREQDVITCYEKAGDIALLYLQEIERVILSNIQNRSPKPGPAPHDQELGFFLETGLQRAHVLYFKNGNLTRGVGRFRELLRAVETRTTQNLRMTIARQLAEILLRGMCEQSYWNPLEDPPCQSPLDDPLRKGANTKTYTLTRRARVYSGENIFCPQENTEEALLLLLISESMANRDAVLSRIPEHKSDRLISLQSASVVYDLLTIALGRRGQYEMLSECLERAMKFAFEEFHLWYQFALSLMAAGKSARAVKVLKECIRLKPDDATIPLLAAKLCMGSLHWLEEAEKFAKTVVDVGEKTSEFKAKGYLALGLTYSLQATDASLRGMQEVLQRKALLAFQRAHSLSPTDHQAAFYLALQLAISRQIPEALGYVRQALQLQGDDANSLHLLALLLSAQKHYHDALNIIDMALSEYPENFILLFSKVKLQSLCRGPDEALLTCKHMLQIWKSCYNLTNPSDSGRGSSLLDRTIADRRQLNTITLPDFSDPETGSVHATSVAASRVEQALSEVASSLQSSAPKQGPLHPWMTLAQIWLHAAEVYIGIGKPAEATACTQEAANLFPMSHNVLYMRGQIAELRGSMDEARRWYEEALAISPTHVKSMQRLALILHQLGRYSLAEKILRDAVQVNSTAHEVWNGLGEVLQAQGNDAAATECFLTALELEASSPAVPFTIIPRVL

B1: TTC7A (natural protein)
chain: MAAKGAHGSYLKVESELERCRAEGHWDRMPELVRQLQTLSMPGGGGNRRGSPSAAFTFPDTDDFGKLLLAEALLEQCLKENHAKIKDSMPLLEKNEPKMSEAKNYLSSILNHGRLSPQYMCEAMLILGKLHYVEGSYRDAISMYARAGIDDMSMENKPLYQMRLLSEAFVIKGLSLERLPNSIASRFRLTEREEEVITCFERASWIAQVFLQELEKTTNNSTSRHLKGCHPLDYELTYFLEAALQSAYVKNLKKGNIVKGMRELREVLRTVETKATQNFKVMAAKHLAGVLLHSLSEECYWSPLSHPLPEFMGKEESSFATQALRKPHLYEGDNLYCPKDNIEEALLLLLISESMATRDVVLSRVPEQEEDRTVSLQNAAAIYDLLSITLGRRGQYVMLSECLERAMKFAFGEFHLWYQVALSMVACGKSAYAVSLLRECVKLRPSDPTVPLMAAKVCIGSLRWLEEAEHFAMMVISLGEEAGEFLPKGYLALGLTYSLQATDATLKSKQDELHRKALQTLERAQQLAPSDPQVILYVSLQLALVRQISSAMEQLQEALKVRKDDAHALHLLALLFSAQKHHQHALDVVNMAITEHPENFNLMFTKVKLEQVLKGPEEALVTCRQVLRLWQTLYSFSQLGGLEKDGSFGEGLTMKKQSGMHLTLPDAHDADSGSRRASSIAASRLEEAMSELTMPSSVLKQGPMQLWTTLEQIWLQAAELFMEQQHLKEAGFCIQEAAGLFPTSHSVLYMRGRLAEVKGNLEEAKQLYKEALTVNPDGVRIMHSLGLMLSRLGHKSLAQKVLRDAVERQSTCHEAWQGLGEVLQAQGQNEAAVDCFLTALELEASSPVLPFSIIPREL
B2: TTC7B (from the Sf9 PI4KA complex) (natural protein)
chain: T1 sequence
B3: FAM126A (1–308) (from the Sf9 complexes) (domain or fragment)
chain: MFTSEKGVVEEWLSEFKTLPETSLPNYATNLKDKSSLVSSLYKVIQEPQSELLEPVCHQLFEFYRSGEEQLLQFTLQFLPELIWCYLAVSASRNVHSSGCIEALLLGVYNLEIVDKQGHTKVLSFTIPSLSKPSVYHEPSSIGSMALTESALSQHGLSKVVYSGPHPQREMLTAQNRFEVLTFLLLCYNAALTYMPSVSLQSLCQICSRICVCGYPRQHVRKYKGISSRIPVSSGFMVQMLTGIYFAFYNGEWDLAQKALDDIIYRAQLELYPEPLLVANAIKASLPHGPMKSNKEGTRCIQVEITPT
B4: His-tagged MBP-EFR3A (721–791) (domain or fragment)
chain: SNTEEITFEALKKAIDTSGMEEQEKEKRRLVIEKFQKAPFEEIAAQCESKANLLHDRLAQILELTIRPPPS
B5: FAM126B (1–308) (from the E. coli dimer) (domain or fragment)
chain: MLGTDRCVVEEWLSEFKALPDTQITSYAATLHRKKTLVPALYKVIQDSNNELLEPVCHQLFELYRSSEVRLKRFTLQFLPELMWVYLRLTVSRDRQSNGCIEALLLGIYNLEIADKDGNNKVLSFTIPSLSKPSIYHEPSTIGSMALTEGALCQHDLIRVVYSDLHPQRETFTAQNRFEVLSFLMLCYNSAIVYMPASSYQSLCRMGSRVCVSGFPRQHEKHWKELCGRIVLDPEFMVQLLTGVYYAMYNGQWDLGQEVLDDIIYRAQLELFSQPLLVANAMKNSLPFDAPDSTQEGQKVLKVEVTPT
B6: FAM126B (1–308) (from the Sf9 dimer) (domain or fragment)
chain: B5 chain
B7: His-tagged MBP-EFR3B (716–787) (domain or fragment)
chain: VPAEEITYETLKKAIVDSVAVEEQERERRRQVVEKFQKAPFEEIAAHCGARASLLQSKLNQIFEITIRPPPS

Key:
[1] = target: T2, PI4KA (UniProt P42356 1-2102); test: SEC
[2] = target: T2, PI4KA; test: cryo-EM structure
[3] = target: B1; test: SEC
[4] = target: TTC7B-FAM126B (1–308) heterodimer (UniProt Q86TV6;Q8IXS8); test: BLI
[5] = target: PI4KA-TTC7B-FAM126A (1–308) complex (UniProt P42356;Q86TV6;Q9BYI3); test: BLI
[6] = target: PI4KA-TTC7A-FAM126A (1–308) complex (UniProt P42356;Q9ULT0;Q9BYI3); test: BLI
[7] = target: TTC7B-FAM126A (1–308) heterodimer (UniProt Q86TV6;Q9BYI3); test: BLI
[8] = target: TTC7A-FAM126B (1–308) heterodimer (UniProt Q9ULT0;Q8IXS8); test: BLI
[9] = target: TTC7A-FAM126A (1–308) heterodimer (UniProt Q9ULT0;Q9BYI3); test: BLI
[10] = target: T1, TTC7B (from the E. coli dimers); test: SEC

Binder: B1
binding result [1]: binds

Binder: B2
binding result [2]: binds

Binder: B3
binding result [3]: binds

Binder: B4
Kd [4]: ~300 pM
Kd [5]: 43 ± 14 pM
Kd [6]: 340 ± 130 pM
Kd [7]: 41 ± 25 pM
Kd [8]: ~300 pM
Kd [9]: ~300 pM

Binder: B5
binding result [10]: binds

Binder: B6
binding result [3]: binds

Binder: B7
Kd [4]: ~300 pM
Kd [7]: ~300 pM
binding result [8]: binds
binding result [9]: binds
